Assay: label from the status in PepcDB records

Sequence	protein production
MRSFSKFAQIVFFGLLIVSAIFVVSCGGSGNAVLNKDKPLVFFNRQPSDPTTGEIDMTSMNWNDKTYYVGFDAAGGGAVQGKLITDFLVSAETSLDRNGDGIIGYVLCIGDVGHNDSKARTEGIRKALGTWAGSTDPGKTKQGSITIAGKTFDVVELEGKAMTGTDGSTWNANAATEAMGGWATKFADQIDMVVSNNDGMAMGCLQASNYPAGVPIFGYDANADAIEAVGKGLLTGTVSQNVDAQATATLQVLRNLLDGLTGTDVYTKGITAEDSYGNKISAPVQYWADVKAVMAANSGVTKANYENYLGGTRDAGIKQTNAPKKKVLLTIYNSGDNFLSSSYLPALKYYAPLLNIELTIVQGDGQNESSCLDKFTNLNNFDAFAVNMVKTNSGSNYTDKLKY	failed
RPQNTNSWQKDSIEGIDIMLAMDVSGSMQAMDFKPNRLEAAKDVAISFINNRPNDNIGMVTFAGESFTQCPLTTDHTVLLNMVQDLQMGVLDDGTAIGMGLATAVNRLKDSKAKSRVVILLTDGSNNMGDITPRMAADIARTFGIRVYTVGVGTRGEAPFPIQTEFGVRIQNVPVDIDEPTLDGIAEVSGGKYFRAVDNETLNEIYKEIDKLEKTRLMT	failed
KNYDLSDLPGPPSKPQVTDVTKNSVTLSWQPGTPGTLPASAYIIEAFSQSVSNSWQTVANHVKTTLYTVRGLRPNTIYLFMVRAINPQGLSDPSPMSDPVRTQD	not failed
MANIAVQRIKREFKEVLKSEETTKNQIKVDLVDENFTELRGEIAGPPDTPYEGGRYQLEIKIPETYPFNPPKVRFITKIWHPNISSVTGAICLDILKDQWAAAMTLRTVLLSLQALLAAAEPDDPQDAVVANQYKQNPEMFKQTARLWAHVYAGAPVSSPEYTKKIENLCAMGFDRNAVIVALSSKSWDVETATELLLSN	not failed
MLAFFIFLSTLVLLFWRPWNLPIWVFSSLGAFFVFIFQLVDFKDACFVFSLVWDSSLTLVGLIILSFSLEALGFFDFIASKILYFSREKNQEKIYISTKKMMLFLLIFVFFLSAFFANDGAILIITPIIIALFSTLKDCKNHAFILSSFLLSLSFLCDASSNALVISNLTNIITANYFKIEFLEFAKNMFLPNFFVLLSTIVTVFVLYVRVLPKRLEFKLIKKEQISLKLFFLCIVFLFLFVISFFIGEIFNIKISFFALLWAGIFWLIILKIQGKKSIKILFEAPYGVLLFSFGLYMVVFALHKIGVSEILVKSYAFLMQDKSGIFGVALISAFGSSVFNNLPMVLIGDLALKEYFENFSFDSLMIYAHLLGVNIGPKLTPIGSLATLLWLGVLARKGINISFWQYCKFGFLITLPVLVFSLFALIV	failed
MGLIDRYLAREILLPFAAALLFLTQILLATQILGQADVLFGSGVSLVDVGLVMLSLMPHLLGYVIPVAFLLGVVLGVGRLAEDREVVALGAAGLSPVRLVRVPLLLGLVVAALGAWLSLSVEPASIRAARLRLNDVVKRNVTNDVRGGTFYDQIPGYTIYTERARGGRWENVLIQDRSNPDAPMLALSRRGRLEPVGAGQDMRLVLEQGEVHREEVGTADYASAAFGKAELLVGLGTALSDRNVLAKSSREATVSDLRARAAAAREKGDVVEERRQEGYLHRKLSAPLVVVAFALLGVPLGAERRGGRAFGMGATFLLVVVHYLLLRGGEVLTQLGHLPAAFALQLPNLVLGAAGVALVLLMARRGPEAVR	failed
MELLCIDYLGKPLRLEGTMAGWQQLFWDNILVAQRPAQEQYEGDIQHHFQLTQGEHVLECCLEIALTWQPFQLQYQTKLNGELVAQGMRSEKDVERQTPYEAPKVERRFSVIGLVSLAMKALKSAKMIKVVMASASLAAYSWLFSFQFALALIGCLVFHEYGHVRAMKYFGMKTKGIYLVPFLGGLALSDEKINTRWQDVVISIMGPCFGFLLSLLLVGVYWVTDSPFWAALAVFNAFLNLFNLLPVLPLDGGHILKSVSFSMNSKMGVILCVLAILGGIALSYSLGLTLFGFLLLMGALDIVFEWRQRHHSHLLPLNRYAQMVSTIWYFALVSGLIAIIIGFASTGDTLLSLPLLILGT	failed
MKSFSIPIRFMLISSFFMSFGYFAVYAFLAIYLLSFLHFSTFQVGTVLTVIIITSRVIPLFSGLIADKIGYIIMMIAGLFLRGIGFIALGICSDFYTVSISSALIGFGTAFYEPAARAIFGSQPAHLRKNLFTYLNLSFNCGAIIGPIAGGFLLLLDPIYAFSLTGSLMLLFALIFYLLKNHFQVTTESTSIALGIQTILQNKSFLLFSFIMIFFYIMFTQLTVALPLHMKNISNSNQLATLVITINAITGVIFMVLFRKLFHKYNTLSFIKYGILLMSISFLLIPLFQHPYWLFICVIFFTIGETLVLPNADIAIANYSNESYTATFFGFYQLSLAFGFIIGNYTGTWFKSKLNGMYTPWLIFGGIGLIGFISLHILNIKKERSKEDIYLLEKY	failed
MNNNEKKVKYFLRKTAYGLASMSAAFAVCSGIVHADTSSGISASIPHKKQVNLGAVTLKNLISKYRGNDKAIAILLSRVNDFNRASQDTLPQLINSTEAEIRNILYQGQIGKQNKPSVTTHAKVSDQELGKQSRRSQDIIKSLGFLSSDQKDILVKSISSSKDSQLILKFVTQATQLNNAESTKAKQMAQNDVALIKNISPEVLEEYKEKIQRASTKSQVDEFVAEAKKVVNSNKETLVNQANGKKQEIAKLENLSNDEMLRYNTAIDNVVKQYNEGKLNITAAMNALNSIKQAAQEVAQKNLQKQYAKKIERISSKGLALSKKAKEIYEKHKSILPTPGYYADSVGTYLNRFRDKQTFGNRSVWTGQSGLDEAKKMLDEVKKLLKELQDLTRGTKEDKKPDVKPEAKPEAKPDVKPEAKPDVKPEAKPDVKPEAKPDVKPEAKPDVKPEAKPDVKPKAKPDVKPEAKPDVKPDVKPDVKPEAKPEDKPDVKPDVKPEAKPDVKPEAKPEAKPEAKPEAKPEAKPEAKPDVKPEAKPDVKPEAKPEAKPEAKSEAKPEAKLEAKPEAKPATKKSVNTSGNLAAKKAIENKKYSKKLPSTGEAASPLLAIVSLIVMLSAGLITIVLKHKKN	failed
MSDTGNYLGPFLVNDFGDRYLYQVNRNAFNSIGSDSLYASTYGESLFAEYQLNIIIGTDSGLFPTYVVNKGIPSGSRYLFIELPEVIERLSEEGILKELPPEVIIATPDTWEEIATDLQINEYVFIDAVRVNESIASSDANLPEYRDISWNINLNVRTLVHETHASINCTQYILRQLENLAENRVAFSRTLVDTFKGRTAVILAGGPSLREALPWVRENRDRLVLIAVSRISKILQSEQIVPHLVATVDPQKVSFEVSREMLYFADMEESPVLVSSYHASPLLVGQWGGRSAYTDSLFPWSTPLNIETHLYTGPTVSNYALSIAMNMGCETIVLAGVDLCFSREGHTHAAGSAENKVGPDLGQLSPRIETNGGWLADTNHGYAHSLEILKLQAELAVSKGHRLYNISLGAAKIPLIEYRPPSEIDLPEDTISTSALIDKYLPPPTSKARLSHYRKIKKELERAQHKFKEILSLSQEALECTDGLFGRNGKERSFRHKVQMDKIERKLDRRYGDFSLLVKQFGLKKFLSILRTPKEEQEWTDEQIEKATRDYYQAYMAGTIQLLAVTNSALSRIEARIEEEKSSPDCDLFISQWLRDGQPGRGRFWLRNHPVTAQCLSEAILGKFRELDDQFTHLMTDEQTIRMELLEKGYDLKHIRSKARLLFRRGEREELEAMAAGIASHPDREKAEPYLYFINGLIAELQQEPNRAIECYQHLLVDPPHPTTEDALRQIASLAIAGNDVENALLALECLSRMSPAYLSPYGEILKALGRYDEAFDAFNRYLSIAPKDVGTLVTLGILCRDAGLADTARDLFARVLENDPTNRVALSQLEGLAAPSND	failed
MPDSVEDTSTISLRICLEGHANALALNKDNNQIALAGRSLLKVYSINSNGFTESCNMRGKNQNLSYSANDVAWSTLDSNLLATAATNGVVSVWDLSKFGRQKQLLVYNEHERTAHTVTFHSSEPNILISGSQDGTIKCFDIRSDKSINTYFCNSESVRDVKFSPHTQNIFSAVSENGTVQLWDMRKWDKCMVQFTAHYGPVYTCDWHPTRNWLATGSRDKQIKVWNMDGRPGLEHTIHTIAVVGRVKWRPERTYHIASCALVVDYSVHVWDIRRPYIPFASFNEHTNVTTGIAWQGSDSHCLLSISKDSTIYKHAFKDATRPALKANAQGASLGRFGDISFANKIKEYEPKTSGASNTKSSSFIRRKTNVAGSIQFHLDHSKMYKFMVNDTFSGYPLSESVSRPTQEHESFIGCARELVISGKKLSELCEHNAEVSKKYGKHNATTLWNFIKLFYGSNHFEPPFEHRSSFSNQKNPMNSRRATQVASDWPQQRTELGQDLNGNTPETAHEIDVANVDDDTLGSSGVEHPPTSSVILSETQIISEITFDNFELLRNGFIYVGPTECPKALAFPALHHDVQAARPQLDLKASDHEKSPVS	failed
MIRHTVVFTLKHASHSLEEKRFLVDAKKILSAIRGVTHFEQLRQISPKIDYHFGFSMEFADQAAYTRYNDHPDHVAFVRDRWVPEVEKFLEIDYVPLGSVV	not failed

From a protein production outcome set (Wang et al. 2014)
